# Data published in US20140087995A1 (published 2014).
# Numbered stars: 1 amine (or outer) side, 2 acyl side, 3 side chain; on linkers, the order of the positions; unused ones are H or OH. Bridge positions count the residues as written; N and C are the ends. Side chains are listed from the residue outwards. Ends that are not written are not given here. * marks the point of attachment. C20 diacid = O=C(O)CCCCCCCCCCCCCCCCCCC(=O)*; γGlu = O=C(O)[C@H](CCC(=O)[*:2])N[*:1]; AEEA = NCCOCCOCC(=O)O
# T1: human calcitonin receptor (human, UniProt P30988 25-474)
# T1 construct: whole, on cells; Assay used cell membranes of the transfected BHK cells; also called hCTR; hCT
# T1 sequence (looked up): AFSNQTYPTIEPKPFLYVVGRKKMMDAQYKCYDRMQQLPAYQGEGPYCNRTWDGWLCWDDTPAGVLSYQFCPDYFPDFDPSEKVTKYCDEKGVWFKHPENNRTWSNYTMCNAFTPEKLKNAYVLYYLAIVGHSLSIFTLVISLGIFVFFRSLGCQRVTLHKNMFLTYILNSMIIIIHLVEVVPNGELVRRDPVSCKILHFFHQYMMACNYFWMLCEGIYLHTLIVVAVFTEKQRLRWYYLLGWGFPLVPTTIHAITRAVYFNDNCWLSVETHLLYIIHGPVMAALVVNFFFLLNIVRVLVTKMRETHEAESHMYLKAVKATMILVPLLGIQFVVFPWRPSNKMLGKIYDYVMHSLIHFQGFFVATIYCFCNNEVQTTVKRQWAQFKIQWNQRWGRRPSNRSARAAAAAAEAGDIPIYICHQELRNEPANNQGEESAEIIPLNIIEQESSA
# Assays:
# [1] = biological target: T1, human calcitonin receptor; experiment: SPA radioligand competition (125I-calcitonin), membranes of BHK cells with human calcitonin receptor
# In short: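 BHK hCTR membranes 35 ng/μL + SPA beads 0.05 mg/well; buffer 50 mM Hepes pH 7.4, 1 mM CaCl2, 5 mM MgCl₂, 0.1% OA, 0.02% Tween20. 120 min, 25° C., shaking. Scintillation count; IC50 by one-site binding competition.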
# [2] = biological target: T1, human calcitonin receptor; experiment: ratio IC50 hCTR / IC50 hAmylin-R of the two SPA competition assays; reference: human amylin receptor
# Experimental: The resulting pellet was resuspended, homogenized and centrifuged (20.000 rpm, 15 min) in a buffer containing 20 mM Na-HEPES and 0.1 mM EDTA (pH 7.4, buffer 2). The resulting pellet was resuspended in buffer 2 and protein concentration was measured (BCA protein Assay, Pierce). The homogenate was kept cold during the whole procedure. The membranes were kept at −80° C. until use. The assay was performed in a 384 well Optiplate (PerkinElmer) in a total volume of 40 ul. Membranes were mixed with SPA beads. Final concentration of membranes 35 ng/μL final and SPA beads was 0.05 mg/well. Test-compounds were dissolved in DMSO and further diluted in assay buffer (50 mM Hepes, pH 7.4, 1 mM CaCl2, 5 mM MgCl₂, 0.1% OA and 0.02% Tween20). […] The final mixture was incubated with shaking at 400 rpm for 120 min at 25° C. prior to centrifugation (1500 rpm, 10 min). Samples were analyzed on TopCounter™ (Packard). The IC₅₀ was calculated using (one site binding competition analysis) GraphPad Prism5 as a measure of receptor affinity.
# Membranes were prepared in the following way; the cells were rinsed with PBS and incubated with Versene for approximately 5 min before harvesting. The cells were flushed with PBS and the cell-suspension was centrifuged for 5 min at 1000 rpm. Cells were homogenized (Ultrathurrax) in a buffer containing 20 mM Na-HEPES and 10 mM EDTA (pH 7.4) and centrifuged at 20.000 rpm for 15 min. The resulting pellet was resuspended, homogenized and centrifuged (20.000 rpm, 15 min) in a buffer containing 20 mM Na-HEPES and 0.1 mM EDTA (pH 7.4, buffer 2). The resulting pellet was resuspended in buffer 2 and protein concentration was measured (BCA protein Assay, Pierce). The homogenate was kept cold during the whole procedure. The membranes were kept at −80° C. until use. Assay was performed in a 384 well Optiplate (PerkinElmer) in a total volume of 40 ul. Membranes were mixed with SPA beads.
Binder,IC50 [1] [nM],Ratio hCT/hAmylin binding [2]
"{C20 diacid-γGlu}-KCNTATCATQRLAEFLRHSSPNFGAIPSSTNVGPNTY-NH2 (disulfide 2-7; SMILES CC[C@H](C)[C@H](NC(=O)[C@H](C)NC(=O)CNC(=O)[C@H](Cc1ccccc1)NC(=O)[C@H](CC(N)=O)NC(=O)[C@@H]1CCCN1C(=O)[C@H](CO)NC(=O)[C@H](CO)NC(=O)[C@H](Cc1c[nH]cn1)NC(=O)[C@H](CCCNC(=N)N)NC(=O)[C@H](CC(C)C)NC(=O)[C@H](Cc1ccccc1)NC(=O)[C@H](CCC(=O)O)NC(=O)[C@H](C)NC(=O)[C@H](CC(C)C)NC(=O)[C@H](CCCNC(=N)N)NC(=O)[C@H](CCC(N)=O)NC(=O)[C@@H](NC(=O)[C@H](C)NC(=O)[C@@H]1CSSC[C@H](NC(=O)[C@H](CCCCN)NC(=O)CC[C@H](NC(=O)CCCCCCCCCCCCCCCCCCC(=O)O)C(=O)O)C(=O)N[C@@H](CC(N)=O)C(=O)N[C@@H]([C@@H](C)O)C(=O)N[C@@H](C)C(=O)N[C@@H]([C@@H](C)O)C(=O)N1)[C@@H](C)O)C(=O)N1CCC[C@H]1C(=O)N[C@@H](CO)C(=O)N[C@@H](CO)C(=O)N[C@H](C(=O)N[C@@H](CC(N)=O)C(=O)N[C@H](C(=O)NCC(=O)N1CCC[C@H]1C(=O)N[C@@H](CC(N)=O)C(=O)N[C@H](C(=O)N[C@@H](Cc1ccc(O)cc1)C(N)=O)[C@@H](C)O)C(C)C)[C@@H](C)O, Synthetic analogue; also called compound 32)",1.09,10.9
"{C20 diacid-γGlu}-KCNTATCATQRLAEFLRHSSPNFGAIPSSTNVGSETY-NH2 (disulfide 2-7; SMILES CC[C@H](C)[C@H](NC(=O)[C@H](C)NC(=O)CNC(=O)[C@H](Cc1ccccc1)NC(=O)[C@H](CC(N)=O)NC(=O)[C@@H]1CCCN1C(=O)[C@H](CO)NC(=O)[C@H](CO)NC(=O)[C@H](Cc1c[nH]cn1)NC(=O)[C@H](CCCNC(=N)N)NC(=O)[C@H](CC(C)C)NC(=O)[C@H](Cc1ccccc1)NC(=O)[C@H](CCC(=O)O)NC(=O)[C@H](C)NC(=O)[C@H](CC(C)C)NC(=O)[C@H](CCCNC(=N)N)NC(=O)[C@H](CCC(N)=O)NC(=O)[C@@H](NC(=O)[C@H](C)NC(=O)[C@@H]1CSSC[C@H](NC(=O)[C@H](CCCCN)NC(=O)CC[C@H](NC(=O)CCCCCCCCCCCCCCCCCCC(=O)O)C(=O)O)C(=O)N[C@@H](CC(N)=O)C(=O)N[C@@H]([C@@H](C)O)C(=O)N[C@@H](C)C(=O)N[C@@H]([C@@H](C)O)C(=O)N1)[C@@H](C)O)C(=O)N1CCC[C@H]1C(=O)N[C@@H](CO)C(=O)N[C@@H](CO)C(=O)N[C@H](C(=O)N[C@@H](CC(N)=O)C(=O)N[C@H](C(=O)NCC(=O)N[C@@H](CO)C(=O)N[C@@H](CCC(=O)O)C(=O)N[C@H](C(=O)N[C@@H](Cc1ccc(O)cc1)C(N)=O)[C@@H](C)O)C(C)C)[C@@H](C)O, Synthetic analogue; also called compound 22)",9.73,12.3
"K([AEEA-AEEA-γGlu-C20 diacid])CNTATCATQRLANFLRHSSPNFGAIPSSTNVGSETY-NH2 (disulfide 2-7; N-terminus assumed; SMILES CC[C@H](C)[C@H](NC(=O)[C@H](C)NC(=O)CNC(=O)[C@H](Cc1ccccc1)NC(=O)[C@H](CC(N)=O)NC(=O)[C@@H]1CCCN1C(=O)[C@H](CO)NC(=O)[C@H](CO)NC(=O)[C@H](Cc1c[nH]cn1)NC(=O)[C@H](CCCNC(=N)N)NC(=O)[C@H](CC(C)C)NC(=O)[C@H](Cc1ccccc1)NC(=O)[C@H](CC(N)=O)NC(=O)[C@H](C)NC(=O)[C@H](CC(C)C)NC(=O)[C@H](CCCNC(=N)N)NC(=O)[C@H](CCC(N)=O)NC(=O)[C@@H](NC(=O)[C@H](C)NC(=O)[C@@H]1CSSC[C@H](NC(=O)[C@@H](N)CCCCNC(=O)COCCOCCNC(=O)COCCOCCNC(=O)CC[C@H](NC(=O)CCCCCCCCCCCCCCCCCCC(=O)O)C(=O)O)C(=O)N[C@@H](CC(N)=O)C(=O)N[C@@H]([C@@H](C)O)C(=O)N[C@@H](C)C(=O)N[C@@H]([C@@H](C)O)C(=O)N1)[C@@H](C)O)C(=O)N1CCC[C@H]1C(=O)N[C@@H](CO)C(=O)N[C@@H](CO)C(=O)N[C@H](C(=O)N[C@@H](CC(N)=O)C(=O)N[C@H](C(=O)NCC(=O)N[C@@H](CO)C(=O)N[C@@H](CCC(=O)O)C(=O)N[C@H](C(=O)N[C@@H](Cc1ccc(O)cc1)C(N)=O)[C@@H](C)O)C(C)C)[C@@H](C)O, Synthetic analogue; also called compound 25)",43.4,56.5

# Continued by falling IC50 [1], values first:
IC50 [1] [nM],Ratio hCT/hAmylin binding [2],Binder
21.6,23.6,"{C20 diacid-γGlu}-KCNTATCATQRLAHFLRHSSPNFGAIPSSTNVGSETY-NH2 (disulfide 2-7; SMILES CC[C@H](C)[C@H](NC(=O)[C@H](C)NC(=O)CNC(=O)[C@H](Cc1ccccc1)NC(=O)[C@H](CC(N)=O)NC(=O)[C@@H]1CCCN1C(=O)[C@H](CO)NC(=O)[C@H](CO)NC(=O)[C@H](Cc1c[nH]cn1)NC(=O)[C@H](CCCNC(=N)N)NC(=O)[C@H](CC(C)C)NC(=O)[C@H](Cc1ccccc1)NC(=O)[C@H](Cc1c[nH]cn1)NC(=O)[C@H](C)NC(=O)[C@H](CC(C)C)NC(=O)[C@H](CCCNC(=N)N)NC(=O)[C@H](CCC(N)=O)NC(=O)[C@@H](NC(=O)[C@H](C)NC(=O)[C@@H]1CSSC[C@H](NC(=O)[C@H](CCCCN)NC(=O)CC[C@H](NC(=O)CCCCCCCCCCCCCCCCCCC(=O)O)C(=O)O)C(=O)N[C@@H](CC(N)=O)C(=O)N[C@@H]([C@@H](C)O)C(=O)N[C@@H](C)C(=O)N[C@@H]([C@@H](C)O)C(=O)N1)[C@@H](C)O)C(=O)N1CCC[C@H]1C(=O)N[C@@H](CO)C(=O)N[C@@H](CO)C(=O)N[C@H](C(=O)N[C@@H](CC(N)=O)C(=O)N[C@H](C(=O)NCC(=O)N[C@@H](CO)C(=O)N[C@@H](CCC(=O)O)C(=O)N[C@H](C(=O)N[C@@H](Cc1ccc(O)cc1)C(N)=O)[C@@H](C)O)C(C)C)[C@@H](C)O, Synthetic analogue; also called compound 30)"
3.26,16,"{C20 diacid-γGlu}-KCNTATCATQRLAEFLRHSSPNFGAIPSSTPVGSNTY-NH2 (disulfide 2-7; SMILES CC[C@H](C)[C@H](NC(=O)[C@H](C)NC(=O)CNC(=O)[C@H](Cc1ccccc1)NC(=O)[C@H](CC(N)=O)NC(=O)[C@@H]1CCCN1C(=O)[C@H](CO)NC(=O)[C@H](CO)NC(=O)[C@H](Cc1c[nH]cn1)NC(=O)[C@H](CCCNC(=N)N)NC(=O)[C@H](CC(C)C)NC(=O)[C@H](Cc1ccccc1)NC(=O)[C@H](CCC(=O)O)NC(=O)[C@H](C)NC(=O)[C@H](CC(C)C)NC(=O)[C@H](CCCNC(=N)N)NC(=O)[C@H](CCC(N)=O)NC(=O)[C@@H](NC(=O)[C@H](C)NC(=O)[C@@H]1CSSC[C@H](NC(=O)[C@H](CCCCN)NC(=O)CC[C@H](NC(=O)CCCCCCCCCCCCCCCCCCC(=O)O)C(=O)O)C(=O)N[C@@H](CC(N)=O)C(=O)N[C@@H]([C@@H](C)O)C(=O)N[C@@H](C)C(=O)N[C@@H]([C@@H](C)O)C(=O)N1)[C@@H](C)O)C(=O)N1CCC[C@H]1C(=O)N[C@@H](CO)C(=O)N[C@@H](CO)C(=O)N[C@H](C(=O)N1CCC[C@H]1C(=O)N[C@H](C(=O)NCC(=O)N[C@@H](CO)C(=O)N[C@@H](CC(N)=O)C(=O)N[C@H](C(=O)N[C@@H](Cc1ccc(O)cc1)C(N)=O)[C@@H](C)O)C(C)C)[C@@H](C)O, Synthetic analogue; also called compound 31)"
